This is an account of results in patent US20100266576A1 (CENTRE NATIONAL DE LA RECHERCHE SCIENT, published 2010).

Assay [1] concerns the target T1, amyloid β peptide 42 (Aβ42).
T1 construct: Synthetic peptide bought from Bachem, used as monomer/oligomer mixtures after incubation at 37 C; also called Aβ42 monomer; Aβ42 oligomers
Description: immunohistochemistry on human AD brain sections. On the procedure:
Immunostaining of brain tissue was performed on […] thick paraffin sections. Sections were de-paraffinized in xylene, rehydrated through ethanol
(100%, 96%, and 90%) and finally brought to water. They were incubated in 90% formic acid, washed again in water, quenched for endogenous peroxidase with 3% hydrogen peroxyde and 20% methanol, and finally washed in water. Non-specific binding was blocked by incubating the sections for 10 minutes in 2% bovine serum albumin in TBS+0.5% Tween. Appropriate dilutions of primary antibodies were then applied overnight in a humidified chamber at room temperature (typically 1 μg/ml for VHH, and 1:200 for 6F/3D mAb). Slides were washed with TBS-Tween and incubated with secondary antibodies (rabbit anti-His Tag or biotinylated anti-mouse immunoglobulins) in TBS-Tween at room temperature for 2 hours. Slides were then incubated with either peroxidase goat anti-rabbit immunoglobulins or streptavidine-peroxidase fusions, and developed with diaminobenzidine (DAB) for 2 minutes. After washing with TBS-Tween, slides were counter-stained with hematoxylin and eosin.

For another assay, the target named is T2, Aβ42 fragment 10-20.
T2 construct: Bought from Bachem; also called Aβ 10-20
T2 peptide: YEVHHQKLVFF
Description: competition ELISA for KD (Friguet method) with Aβ fragment peptides. The method, then: (§1) Binding affinity of VHH antibodies was determined as described in Friguet et al., (1985). Various concentrations of Aβ peptides were incubated in solution overnight at 4° C. with a known quantity of VHH antibody until equilibrium was reached. The VHH antibody concentration used was determined by preliminary ELISA calibrations. Each mixture (100 μl) was transferred to a well of a microtiter plate previously coated with antigen and was incubated for 20 min at 4° C. The plates were washed with buffer A and free VHH antibodies were detected by adding β-galactosidase-conjugated goat anti-rabbit Igs (Biosys, Compiegne, France) and 4-methylumbelliferyl β-D galactoside (Sigma). Fluorescence was read (Fluoroskan, Labsystem, Finland) at 460 nm, after excitation at 355 nm. KD was estimated from the slope of the regression curve obtained by plotting the reciprocal of the fraction of bound antibody versus the reciprocal of the molar concentration of antigen.

Another assay concerns the target T3, Aβ42 fragment 15-25.
T3 construct: Bought from Bachem; also called Aβ 15-25
T3 peptide: QKLVFFAEDVG
The description is as above. On the procedure: as §1

The target of the next assay is T4, Aβ42 fragment 1-11.
T4 construct: Bought from Bachem; also called Aβ 1-11; printed as fragment 1-10 in the result sentence
T4 peptide: DAEFRHDSGYE
Described as above. The method, then: as §1

A further assay has as its target T5, Aβ42 fragment 22-35.
T5 construct: Bought from Bachem; also called Aβ 22-35
T5 peptide: EDVGSNKGAIIGLM
Described as above. The method, then:
as §1

The target of the next assay is T6, peptide Aβ 33-42.
T6 construct: Bought from Bachem; also called Aβ42 fragment 33-42
T6 peptide: GLMVGGVVIA
Description: competition ELISA in solution (Friguet method). The method, then: as §1
(In general: ELISA stands for enzyme-linked immunosorbent assay.)

The next assay deals with T7, peptide Aβ 29-40.
T7 construct: Bought from Bachem; also called Aβ42 fragment 29-40
T7 peptide: GAIIGLMVGGVV
Description: competition ELISA in solution (Friguet method). The method, then: as §1

T1 sequence (peptide, as listed by the source): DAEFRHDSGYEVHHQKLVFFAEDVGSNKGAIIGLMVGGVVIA

B1: VHH 61-3 (VHH)
VHH: EVQLQASGGGLVQAGGSLRLSCAASGSTFRINRMGWYRQAPGKQRELVASINSGGSTNYADSVKGRFTISRDNAKGTVNLTMNSLKPEDTAVYYCNRVTPWPYWGQGTQVTVS
notes: Expressed from pET22 and purified by Ni-NTA; also called CNCM I-2933
With B1, the binding result in assay [1] is listed as “binds”.

B2: VHH V31-1 (VHH)
VHH: EVQLQASGGGSVQPGGSLRLSCAASGFIFGWSTMSWVRQAPGKGLEWVSTISGGGSATTYTDSVKGRFTISRDRAKNTLYLQMNSLKPEDTAIYYCNADVSTGFRYQRKDYWGRGTQVTVS
notes: Camelid VHH subcloned from pHEN1 into pET22, expressed in the E. coli periplasm and purified by Ni-NTA IMAC; It was detected with anti-c-myc or anti-His tag antibodies; also called VHH V31-1 antibody; CNCM I-2936
Consider B2, for which the binding result in the assay with Aβ42 fragment 10-20, with Aβ42 fragment 15-25, in the assay with Aβ42 fragment 1-11 and in the assay with Aβ42 fragment 22-35 was “no binding” throughout. Besides, the Kd with peptide Aβ 33-42 and with peptide Aβ 29-40 was 20 nM in each case.

The term Kd denotes the concentration at which binding is half-saturated.
